In patent US20200181247A1 one finds binding response units (BRUs), mean data, which are given here for 1 substance.

In the assay the target is commercially-prepared stable A-beta42 Oligomers (SynAging SAS) (human). The assay is described as follows: SPR; antibody covalently immobilized, stable A-beta42 oligomers (1 microM) injected. In general terms: SPR reads the build-up and loss of mass on a sensor chip optically.
Sequence of commercially-prepared stable A-beta42 Oligomers (SynAging SAS) (human) (peptide, as listed by the source): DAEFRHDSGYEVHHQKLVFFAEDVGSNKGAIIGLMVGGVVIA

In the case of negative control IgG1 (antibody), the binding response units (BRUs), mean turned out to be 2.5 BRU.
